This passage reports stoichiometry N results from article doi:10.1101/2023.07.07.548133.

For orientation: stoichiometry N means the number of molecules, sites or subunits per partner or assembly.

The target in the assay is cytosolic PAS domain (PASc) of the bacterial citrate sensor histidine kinase (CitA). Put plainly: MINFLUX fluorescence nanoscopy.

For the substance “cytosolic PAS domain (PASc) of the bacterial citrate sensor histidine kinase (CitA) (domain or fragment)”, the stoichiometry N is 2.
